Results taken from patent publication US20090047282.

How the values were obtained:
[1] = system: Shh-(24-45), 22-mer peptide of amino acids 24 to 45 of human Shh, biotin at the C-terminal lysine
[2] = system: human Shh-N (cysteine residue at the 24th position up to the glycine residue at the 197th position of human Shh), E. coli recombinant, histidine tag excised with enterokinase

Shh-(24-45), 22-mer peptide of amino acids 24 to 45 of human Shh, biotin at the C-terminal lysine, sequence (chain, as listed by the source): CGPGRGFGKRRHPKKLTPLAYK

| Substance | radioactivity of [3H] palmitic acid added to the substrate peptide against the peptide's concentration (reaction time 1 hour) [1] | radioactivity of [3H] palmitic acid added to the substrate peptide against the reaction time (10 uM peptide) [1] | radioactivity of [14C] palmitic acid in the band of Shh-N after SDS-PAGE (HHAT activity) [2] |
| --- | --- | --- | --- |
| human HHAT expressed with the Bac-to-Bac baculovirus system (HHAT enzyme solution of Example 5) | the activity was increased depending on the concentration (FIG. 3) | the activity was increased for 2 hours (FIG. 4) |  |
| human HHAT (human hedgehog acyltransferase) with a C-terminal FLAG-Tag, crude enzyme solution from transfected HEK293 cells |  |  | Only when the human HHAT crude enzyme solution and the Shh-N were reacted, a band having a radioactivity was recognized in the vicinity of the molecular weight of 21 kDa corresponding to the Shh-N |
